Reference: US20230220042A1 (SHANGHAI JIAO TONG UNIVERSITY SCHOOL OF MEDICINE, published 2023)
Numbering of substitutions follows the chain as printed. In names and notes the source's numbering stands.

T1: FcγRIIA^131R (human, UniProt P12318 34-217, biotin-labeled)
T1 construct: extracellular domain; Bought protein; also called RIIAR
T1 sequence (looked up): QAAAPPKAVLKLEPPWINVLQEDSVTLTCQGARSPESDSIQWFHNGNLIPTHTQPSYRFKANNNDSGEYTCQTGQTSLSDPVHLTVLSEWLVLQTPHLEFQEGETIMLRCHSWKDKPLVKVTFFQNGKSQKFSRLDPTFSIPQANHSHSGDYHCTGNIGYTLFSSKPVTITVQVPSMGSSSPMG

T2: FcγRIIA^131H (human, UniProt P12318 34-217, biotin-labeled)
T2 construct: extracellular domain; Bought protein; also called RIIAH
T2 sequence (looked up): T1 sequence (looked up) with R134H

T3: FcγRIIB (human, UniProt P31994 43-217, biotin-labeled)
T3 construct: extracellular domain; Bought protein; also called CD32b
T3 sequence (looked up): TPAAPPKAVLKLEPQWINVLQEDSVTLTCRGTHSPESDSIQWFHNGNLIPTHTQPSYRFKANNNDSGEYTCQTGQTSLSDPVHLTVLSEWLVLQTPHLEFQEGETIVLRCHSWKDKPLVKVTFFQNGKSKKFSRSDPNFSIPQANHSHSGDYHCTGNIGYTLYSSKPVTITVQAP

T4: Biotin-FcγRIIB (human FcγRIIB, Sino Biological) (human, UniProt P31994 43-217, limits assumed, biotin-labeled)
T4 construct: Used at 1 µg/ml with Streptavidin-APC for flow cytometry and sorting; also called CD32b
T4 sequence (looked up): T3 sequence (looked up)

B1: human IgG2 anti-mouse CD40 surface displayed antibody, P271G (antibody, name in EU numbering)
light chain (with the P2A rest): DTVLTQSPALAVSPGERVTISCRASDSVSTLMHWYQQKPGQQPKLLIYLASHLESGVPARFSGSGSGTDFTLTIDPVEADDTATYYCQQSWNDPWTFGGGTKLELKRTVAAPSVFIFPPSDEQLKSGTASVVCLLNNFYPREAKVQWKVDNALQSGNSQESVTEQDSKDSTYSLSSTLTLSKADYEKHKVYACEVTHQGLSSPVTKSFNRGECGSGATNFSLLKQAGDVEENPG
heavy chain: EVQLVESDGGLVQPGRSLKLPCAASGFTFSDYYMAWVRQAPTKGLEWVASISYDGSSTYYRDSVKGRFTISRDNAKSTLYLQMDSLRSEDTATYYCGRHSSYFDYWGQGVMVTVSSASTKGPSVFPLAPCSRSTSESTAALGCLVKDYFPEPVTVSWNSGALTSGVHTFPAVLQSSGLYSLSSVVTVPSSNFGTQTYTCNVDHKPSNTKVDKTVERKCCVECPPCPAPPVAGPSVFLFPPKPKDTLMISRTPEVTCVVVDVSHEDGEVQFNWYVDGVEVHNAKTKPREEQFNSTFRVVSVLTVVHQDWLNGKEYKCKVSNKGLPAPIEKTISKTKGQPREPQVYTLPPSREEMTKNQVSLTCLVKGFYPSDIAVEWESNGQPENNYKTTPPMLDSDGSFFLYSKLTVDKSRWQQGNVFSCSVMHEALHNHYTQKSLSLSPGKLEPPPSTVSNMATVAVLVVLGAAIVTGAVVAFVMKMRRRNTGGKGGDYALAPGSQTSDLSLPDCKVMVHDPHSLA
notes: m1 with this Fc mutation (Eu numbering); copies: 2 + 2
B2: human IgG2 anti-mouse CD40 surface displayed antibody, L328M (antibody, name in EU numbering)
light chain (with the P2A rest): B1 light chain (with the P2A rest)
heavy chain: B1 heavy chain with G266P, L323M
notes: as for B1
B3: human IgG2 anti-mouse CD40 surface displayed antibody, P271G/S298G (antibody, name in EU numbering)
light chain (with the P2A rest): B1 light chain (with the P2A rest)
heavy chain: B1 heavy chain with S293G
notes: m1 with these Fc mutations (Eu numbering); copies: 2 + 2
B4: human IgG2 anti-mouse CD40 surface displayed antibody, P271G/S298L (antibody, name in EU numbering)
light chain (with the P2A rest): B1 light chain (with the P2A rest)
heavy chain: B1 heavy chain with S293L
notes: as for B3
B5: human IgG2 anti-mouse CD40 surface displayed antibody, P271G/S298D (antibody, name in EU numbering)
light chain (with the P2A rest): B1 light chain (with the P2A rest)
heavy chain: B1 heavy chain with S293D
notes: as for B3
B6: human IgG2 anti-mouse CD40 surface displayed antibody, P271Q (antibody, name in EU numbering)
light chain (with the P2A rest): B1 light chain (with the P2A rest)
heavy chain: B1 heavy chain with G266Q
notes: as for B1
B7: human IgG2 anti-mouse CD40 surface displayed antibody, P271G/P331C (antibody, name in EU numbering)
light chain (with the P2A rest): B1 light chain (with the P2A rest)
heavy chain: B1 heavy chain with P326C
notes: as for B3
B8: human IgG2 anti-mouse CD40 surface displayed antibody, S267E (antibody, name in EU numbering)
light chain (with the P2A rest): B1 light chain (with the P2A rest)
heavy chain: B1 heavy chain with S262E, G266P
notes: as for B1
B9: human IgG2 anti-mouse CD40 surface displayed antibody, P271G/T299M (antibody, name in EU numbering)
light chain (with the P2A rest): B1 light chain (with the P2A rest)
heavy chain: B1 heavy chain with T294M
notes: as for B3
B10: human IgG2 anti-mouse CD40 surface displayed antibody, P271G/P331T (antibody, name in EU numbering)
light chain (with the P2A rest): B1 light chain (with the P2A rest)
heavy chain: B1 heavy chain with P326T
notes: as for B3
B11: human IgG2 anti-mouse CD40 surface displayed antibody, P271G/T299W (antibody, name in EU numbering)
light chain (with the P2A rest): B1 light chain (with the P2A rest)
heavy chain: B1 heavy chain with T294W
notes: as for B3
B12: human IgG2 anti-mouse CD40 surface displayed antibody, P271G/S298R (antibody, name in EU numbering)
light chain (with the P2A rest): B1 light chain (with the P2A rest)
heavy chain: B1 heavy chain with S293R
notes: as for B3
B13: human IgG2 anti-mouse CD40 surface displayed antibody, P271G/T299S (antibody, name in EU numbering)
light chain (with the P2A rest): B1 light chain (with the P2A rest)
heavy chain: B1 heavy chain with T294S
notes: as for B3
B14: human IgG2 anti-mouse CD40 surface displayed antibody, P271G/S298K (antibody, name in EU numbering)
light chain (with the P2A rest): B1 light chain (with the P2A rest)
heavy chain: B1 heavy chain with S293K
notes: as for B3
B15: human IgG2 anti-mouse CD40 surface displayed antibody, P271G/S298E (antibody, name in EU numbering)
light chain (with the P2A rest): B1 light chain (with the P2A rest)
heavy chain: B1 heavy chain with S293E
notes: as for B3
B16: human IgG2 anti-mouse CD40 surface displayed antibody, P271G/S298N (antibody, name in EU numbering)
light chain (with the P2A rest): B1 light chain (with the P2A rest)
heavy chain: B1 heavy chain with S293N
notes: as for B3
B17: human IgG2 anti-mouse CD40 surface displayed antibody, P271G/P329S (antibody, name in EU numbering)
light chain (with the P2A rest): B1 light chain (with the P2A rest)
heavy chain: B1 heavy chain with P324S
notes: as for B3
B18: human IgG2 anti-mouse CD40 surface displayed antibody, P271G/T299A (antibody, name in EU numbering)
light chain (with the P2A rest): B1 light chain (with the P2A rest)
heavy chain: B1 heavy chain with T294A
notes: as for B3
B19: human IgG2 anti-mouse CD40 surface displayed antibody, P271A/S298R (antibody, name in EU numbering)
light chain (with the P2A rest): B1 light chain (with the P2A rest)
heavy chain: B1 heavy chain with G266A, S293R
notes: as for B3

Assays:
FcγRIIIA^158F = molecular target: T5, FcγRIIIA^158F (human, UniProt P08637 17-208, biotin-labeled); test: ELISA, coated antibody, biotin-FcγR
T5 construct: extracellular domain; Bought protein; also called RIIIAF
T5 sequence (P08637 17-208): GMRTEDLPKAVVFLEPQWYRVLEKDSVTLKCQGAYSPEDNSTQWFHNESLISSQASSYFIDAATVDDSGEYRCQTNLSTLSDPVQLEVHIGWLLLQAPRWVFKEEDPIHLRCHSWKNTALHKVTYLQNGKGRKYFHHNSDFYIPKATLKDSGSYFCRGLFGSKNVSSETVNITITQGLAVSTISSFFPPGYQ
Procedure: (§1) One hundred μl (2 μg/mL) of antibody or mutant thereof were added to the enzyme-linked plate to be coated overnight, then the supernatant was discarded. The plate was blocked with PBS containing 1% BSA for 2 hours, and washed with PBST (PBS containing 0.05% Tween 20). Biotin-labeled FcγR extracellular domain protein (Beijing Sino Biological Co., Ltd) of appropriate concentration was added and incubated at room temperature for 1 hour, then the supernatant was discarded and the plate was washed with PBST. The Biotin-labeled protein was detected by incubating with Streptavidin-HRP (BD BioSciences) at room temperature for 1 hour. The supernatant was removed, and the color-developing solution was added for color development for 20-40 minutes to determine the absorbance of 650 nm (A650).
(§2) Anti-human OX40 antibodies containing these new Fc mutation combinations are expressed and the binding property of the mutant antibody to FcγR are analyzed by Enzyme-linked immunosorbent assay (ELISA).

FcγRI = molecular target: T6, FcγRI (human, UniProt P12314 16-292, biotin-labeled); test: ELISA, coated antibody, biotin-FcγR
T6 construct: extracellular domain; Bought protein; also called CD64
T6 sequence (P12314 16-292): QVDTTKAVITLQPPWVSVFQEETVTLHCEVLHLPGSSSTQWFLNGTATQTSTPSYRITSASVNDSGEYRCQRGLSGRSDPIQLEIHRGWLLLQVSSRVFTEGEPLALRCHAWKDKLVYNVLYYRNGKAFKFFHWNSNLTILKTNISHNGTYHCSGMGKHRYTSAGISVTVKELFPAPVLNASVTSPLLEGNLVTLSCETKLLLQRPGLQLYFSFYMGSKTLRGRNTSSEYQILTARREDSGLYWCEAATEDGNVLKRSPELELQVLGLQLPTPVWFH
Procedure: as §1, §2

FcγRIIA^131R = molecular target: T1, FcγRIIA^131R; test: ELISA, coated antibody, biotin-FcγR
Procedure: as §1, §2

FcγRIIIA^158V = molecular target: T7, FcγRIIIA^158V (human, UniProt P08637 17-208, biotin-labeled); test: ELISA, coated antibody, biotin-FcγR
T7 construct: extracellular domain; Bought protein; also called RIIIAV; CD16a 158V
T7 sequence (P08637 17-208 F176V): as the sequence (P08637 17-208) above, with F160V counted along it
Procedure: as §1, §2

FcγRIIA^131H = molecular target: T2, FcγRIIA^131H; test: ELISA, coated antibody, biotin-FcγR
Procedure: as §1, §2

FcγRIIB = molecular target: T3, FcγRIIB; test: ELISA, coated antibody, biotin-FcγR
Procedure: as §1, §2

[1] = molecular target: T4, Biotin-FcγRIIB (human FcγRIIB, Sino …); test: NGS after FACS sort of 3T3-displayed LibraryMix for biotin-FcγRIIB binding

| Molecule | Enrichment factor (percentage after sorting/percentage before sorting) [1] | Increased factor (enrichment factor/wild-type enrichment factor) [1] | also measured |
| --- | --- | --- | --- |
| IgG1 (antibody) | – | – | Absorbance value (FcγRIIIA^158F): 0.19 A650; Absorbance value (FcγRI): 2.66 A650; Absorbance value (FcγRIIA^131R): 0.26 A650; Absorbance value (FcγRIIIA^158V): 0.96 A650; Absorbance value (FcγRIIA^131H): 0.57 A650; Absorbance value (FcγRIIB): 0.76 A650 |
| B1 | 68.9 | 92.1 | – |
| B2 | 24.9 | 33.3 | – |
| B3 | 9.73 | 13 | – |
| B4 | 188 | 252 | – |
| B5 | 6.78 | 9.06 | – |
| B6 | 1.65 | 2.21 | – |
| B7 | 140 | 187 | – |
| B8 | 217 | 290 | – |
| B9 | 4.74 | 6.33 | – |
| B10 | 32.3 | 43.2 | – |
| B11 | 9.23 | 12.3 | – |
| B12 | 16 | 21.4 | – |
| B13 | 12 | 16 | – |
| B14 | 10.2 | 13.6 | – |
| B15 | 298 | 398 | – |
| B16 | 18 | 24 | – |
| B17 | 46.2 | 61.8 | – |
| B18 | 6.28 | 8.39 | – |
| B19 | 2.45 | 3.27 | – |
